B1: PLAGL1 (parent)
chain: DPNKMAFGCEECGKKYNTMLGYKR
B2: CLCN6 (parent)
chain: FQSISLRKIQFNFPYFRSDRDKRD

Variants of: B1
Assay: protein stability index of a GFP-peptide fusion (GPS, HEK-293T) (PSI 1-6); higher = more stable
Conditions: c terminus: a fixed tail appended
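Also: lentivirally expressed fusions sorted by FACS into six bins by GFP to DsRed ratio, PSI derived from sequencing read proportions per bin multiplied by bin number.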

Protein stability index: each site, then its substitutions
D1: I 2.16 | V 2.7 | C 2.18 | P 2.08 | H 2.05 | L 2.34 | M 2.26 | R 1.8 | A 1.94 | T 2.13 | Q 2.05 | S 2.05 | E 1.77 | N 3.64 | G 2.22 | K 2.09
N3: M 2.82 | L 3.54 | E 2.52 | A 2.21 | P 2.26 | Q 3.51 | Y 2.14 | C 2.23 | W 2.23 | K 3.1 | F 2.15 | I 2.19 | G 2.8 | S 2.87 | R 2.25 | H 2.61 | T 2.79 | V 2.69
A6: Y 2.19 | Q 2.36 | W 2.9 | I 2.46 | S 2.33 | H 2.53 | N 2.58 | T 2.29 | F 2.32 | C 2.35 | V 2.04 | R 2.19 | M 2.75 | K 2.97 | D 2.9 | L 3.02 | G 2.02 | E 3.09 | P 2.53
G8: K 2.14 | I 2.76 | C 2.19 | M 1.96 | F 1.68 | L 2.82 | D 2.73 | E 2.74 | H 2.5 | N 2.74
P2: Q 1.92 | V 2 | K 2.57 | H 1.86 | F 2.73 | R 3.98 | Y 2.51 | A 2.26 | L 2.15 | I 1.88 | E 2.04 | D 2.54 | N 2.12 | C 2.28 | W 1.82 | M 3.12 | S 2.7 | T 2.03 | G 2.05
M5: H 2.73 | S 2.81 | T 2.88 | K 2.26 | W 2.35 | D 3.54 | V 1.93 | F 2.15 | A 2.63 | N 2.48 | L 2.67 | G 2.81 | P 2.2 | I 2.38 | Y 2.33 | Q 2.26 | E 3.31 | C 3.04 | R 2.36
K4: G 2.72 | P 3.01 | D 2.53 | F 1.61 | R 1.64 | M 2.6 | Q 2.61 | N 2.55 | Y 2.59 | E 3.3 | C 2.45 | W 2.08 | H 2.35 | L 2.85 | A 2.35 | T 2.61 | V 1.98 | S 2.48 | I 1.95
F7: T 2.3 | D 2.59 | C 2.22 | S 3.43 | Q 3.45 | I 2.98 | H 2.19 | A 3.27 | K 2.31 | M 2.58 | R 1.92 | E 3.21 | W 1.74 | Y 2.53 | N 2.45 | P 2.57 | V 2.43 | G 3.17

Variants of: B2
Assay: as above
Conditions: c terminus: a fixed tail appended

Protein stability index, by site and new letter:
R23: P 3.46 | S 1.29 | N 1.81 | V 1.88 | K 1.91 | T 2.25 | L 1.35 | W 1.26 | M 1.38 | I 1.69 | Q 2.39 | Y 1.28
D24: Q 1.37 | N 1.49 | F 1.93 | K 1.37 | Y 1.58 | V 1.31 | A 1.68 | L 2 | H 2.1 | T 2.21 | E 1.93 | M 1.66 | R 1.94 | C 2.75 | I 2.59 | P 2 | S 2.23

Reference: the supplement of paper PMC10567573
